From patent US6747005

Key:
[1] = target: recombinant Importin α Rch1, full-length, P52292
[2] = target: Rch1 N-terminal fragment (residues 1-95), P52292
[3] = target: ΔN-Rch1 lacking the Importin β binding site, P52292

B1: recombinant CBP HAT domain (amino acids 1098-1758) (protein)
chain: TLEALYRQDPESLPFRQPVDPQLLGIPDYFDIVKNPMDLSTIKRKLDTGQYQEPWQYVDDVWLMFNNAWLYNRKTSRVYKFCSKLAEVFEQEIDPVMQSLGYCCGRKYEFSPQTLCCYGKQLCTIPRDAAYYSYQNRYHFCEKCFTEIQGENVTLGDDPSQPQTTISKDQFEKKKNDTLDPEPFVDCKECGRKMHQICVLHYDIIWPSGFVCDNCLKKTGRPRKENKFSAKRLQTTRLGNHLEDRVNKFLRRQNHPEAGEVFVRVVASSDKTVEVKPGMKSRFVDSGEMSESFPYRTKALFAFEEIDGVDVCFFGMHVQNTALIAPHQIQGRVYISYLDSIHFFRPRCLRTAVYHEILIGYLEYVKKLGYVTGHIWACPPSEGDDYIFHCHPPDQKIPKPKRLQEWYKKMLDKAFAERIINDYKDIFKQANEDRLTSAKELPYFEGDFWPNVLEESIKELEQEEEERKKEESTAASETPEGSQGDSKNAKKKNNKKTNKNKSSISRANKKKPSMPNVSNDLSQKLYATMEKHKEVFFVIHLHAGPVISTQPPIVDPDPLLSCDLMDGRDAFLTLARDKHWEFSSLRRSKWSTLCMLVELHTQGQDRFVYTCNECKHHVETRWHCTVCEDYDLCINCYNTKSHTHKMVKWGLGLDDEGSSQG
[1]
  acetylation ([14-C]-acetyl coA, SDS-PAGE, blot exposed to film): Only the full-length Rch1 and the N-terminal 1-95 fragment showed acetylation.
  acetylation (analysis as in the first experiment): CBP was shown to acetylate Importin α family members, Rch1 and Importin α7
[2]
  acetylation ([14-C]-acetyl coA, SDS-PAGE, blot exposed to film): Only the full-length Rch1 and the N-terminal 1-95 fragment showed acetylation.
[3]
  acetylation ([14-C]-acetyl coA, SDS-PAGE, blot exposed to film): Only the full-length Rch1 and the N-terminal 1-95 fragment showed acetylation. (ΔN-Rch1 showed none)
Importin α7
  acetylation (analysis as in the first experiment): CBP was shown to acetylate Importin α family members, Rch1 and Importin α7
